Results reported in patent US20110027273A1.

Biological target: mouse CD22 (mouse) (UniProt P35329)
Experiment: cell-based or functional assay

Chain of UniProt P35329 (P35329 22-868): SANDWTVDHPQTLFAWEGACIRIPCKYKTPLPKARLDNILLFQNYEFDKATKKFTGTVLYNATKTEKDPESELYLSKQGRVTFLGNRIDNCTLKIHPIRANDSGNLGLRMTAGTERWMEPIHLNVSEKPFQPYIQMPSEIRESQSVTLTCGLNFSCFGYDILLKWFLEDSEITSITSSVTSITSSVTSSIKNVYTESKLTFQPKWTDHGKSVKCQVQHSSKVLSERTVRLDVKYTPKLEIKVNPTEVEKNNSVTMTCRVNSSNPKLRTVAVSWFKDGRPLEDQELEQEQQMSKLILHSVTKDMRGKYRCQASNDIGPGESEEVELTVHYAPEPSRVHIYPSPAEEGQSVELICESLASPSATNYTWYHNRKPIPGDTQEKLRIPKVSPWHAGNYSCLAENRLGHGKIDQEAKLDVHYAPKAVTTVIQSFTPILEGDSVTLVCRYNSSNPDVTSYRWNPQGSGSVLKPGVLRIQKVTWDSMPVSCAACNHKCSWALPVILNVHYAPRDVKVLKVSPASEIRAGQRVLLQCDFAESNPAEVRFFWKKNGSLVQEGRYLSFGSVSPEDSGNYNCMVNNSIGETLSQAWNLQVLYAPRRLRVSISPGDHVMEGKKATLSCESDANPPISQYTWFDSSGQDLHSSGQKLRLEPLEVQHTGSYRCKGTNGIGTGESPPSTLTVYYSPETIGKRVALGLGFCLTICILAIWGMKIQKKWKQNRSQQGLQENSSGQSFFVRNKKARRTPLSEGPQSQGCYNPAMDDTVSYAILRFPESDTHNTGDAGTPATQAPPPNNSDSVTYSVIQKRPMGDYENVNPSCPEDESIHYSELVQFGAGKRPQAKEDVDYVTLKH

- IC50, proliferation of LPS-stimulated primary mouse B cells (3H thymidine, 48 hr): 0.03 µg/mL
- selectivity against the control immunoconjugate J110/cal (IC50 3 µg/ml), B cell proliferation: 100 fold
Substance: CD22/cal (Cy34.1 mAb conjugated to N-acetyl gamma calicheamicin dimethyl acid) (antibody)
- IC50, in vitro cytotoxicity (proliferation of LPS-stimulated primary B cells, 48 hours): 0.08 µg/mL
